The nature of data set [1]: In vivo near infrared imaging of lymphatic delivery of fluorescently tagged Etanercept after needle array administration to the skin. To be noted: needle array device placed dorsally on rats, FIG. 8 and 9. Details: species or system rat. As to the method: The ability to deliver the protein therapeutic Etanercept directly to the lymphatic system via administration to the skin was tested. Etanercept was fluorescently tagged for in vivo visualization using near infrared light as previous described, see Sevick-Muraca et al., J. Clin Invest., 124 (3), 905-914 (2014), which is incorporated by reference herein for its teachings thereof. Etanercept was administered to the skin of rats by placing a delivery device comprising an array of needles dorsally on the rats.

Data set [2] can be described thus: Biodistribution of Etanercept across multiple tissue types following delivery to the skin. It is filed as in vivo, rat. To be noted: delivery to the skin compared to traditional i.v., s.c., or i.d. methods, FIG. 10. From the text: The biodistribution of Etanercept across multiple tissues types following delivery was investigated.
A short description of data set [3]: Rate of blood serum absorption of Etanercept after delivery to the skin. It is filed as in vivo. To be noted: administration to the skin compared with i.v., s.c., or i.d. methods, FIG. 13.
Data set [4] can be described thus: Localization of Etanercept to inflamed tissues in hind limb arthritic rat model. It is filed as in vivo. To be noted: administered to the skin compared to subcutaneous delivery, FIG. 11A and B.
For data set [5], the system named is hind limb arthritic rat model. In words: Reduction of swelling of inflamed tissues measured by ankle diameter. The conditions noted are these: same 3 mg dosage, administration to the skin compared to subcutaneous injection, FIG. 12. It is filed as in vivo. The procedure: Furthermore, there was a 17% reduction in the swelling of these inflamed tissues after administration of the same 3 mg dosage of Etanercept as measured by ankle diameter (FIG. 12).

This note sets out measurements from US10737082B2, “Methods for lymphatic delivery of active agents” (Sorrento Therapeutics, Inc., priority 2015, dated 2020).

As to Etanercept, in data set [1], the “lymphatic uptake and distribution after administration to the skin” value was “uptake by the lymphatic vasculature and subsequent distribution to primary and secondary lymph node tissues”. In data set [2], the “levels within the axillary and inguinal lymph nodes” value is on record as “much higher levels”. Further, the “blood serum absorption rate” value in data set [3] is “approximately the same”. Besides, the “levels localized to inflamed tissues” value in data set [4] is listed as “higher levels”. The “reduction in the swelling of inflamed tissues (ankle diameter)” value in data set [5] is recorded as 17%.
